Source: article PMC3902945 (Nucleic Acids Research, 2013)

T1: C-terminal His6-tagged SAUDG (S. aureus uracil-DNA glycosylase) (S. aureus, UniProt Q6GJ88 1-218)
T1 sequence (looked up): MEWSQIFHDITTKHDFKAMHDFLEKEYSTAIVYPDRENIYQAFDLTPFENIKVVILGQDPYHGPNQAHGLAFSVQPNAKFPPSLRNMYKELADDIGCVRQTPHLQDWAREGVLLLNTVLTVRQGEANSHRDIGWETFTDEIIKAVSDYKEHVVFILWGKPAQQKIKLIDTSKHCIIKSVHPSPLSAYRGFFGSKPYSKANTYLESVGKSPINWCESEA


Key:
Test in all cases: SPR
[1] = target: C-terminal His6-tagged human UDG (uracil-DNA glycosylase) (human)
[2] = target: C-terminal His6-tagged SAUDG (S. aureus uracil-DNA glycosylase) (S. aureus) (UniProt Q6GJ88)
[3] = target: T1, C-terminal His6-tagged SAUDG (S. aureus …)

| Molecule | Kd [1] [nM] | koff [1] [s⁻¹] | kon [1] [M⁻¹ s⁻¹] | Kd [2] [nM] | koff [2] [s⁻¹] | kon [2] [M⁻¹ s⁻¹] | Kd [3] [nM] | koff [3] [s⁻¹] | kon [3] [M⁻¹ s⁻¹] |
| --- | --- | --- | --- | --- | --- | --- | --- | --- | --- |
| tag-free SAUGI (Staphylococcus aureus uracil-DNA glycosylase inhibitor) (natural protein) | 2.51 | 0.00124 | 496000 | 1.2 | 0.00296 | 2.47e+06 |  |  |  |
| uracil-DNA glycosylase inhibitor from phage PBS2 (UGI) (from UniProt P14739 1-84) (natural protein) | 0.189 | 0.00119 | 6.32e+06 |  |  |  |  |  |  |
| uracil-DNA glycosylase inhibitor from phage PBS2 (UGI) (natural protein) MTNLSDIIEKETGKQLVIQESILMLPEEVEEVIGNKPESDILVHTAYDESTDENVMLLTSDAPEYKPWALVIQDSNGENKIKML |  |  |  |  |  |  | 0.685 ± 0.08 | 0.0061 ± 0.00068 | 8.9e+06 ± 419000 |
